Measured values as given in the domain aggregation screens of Martell et al. (2025).

Test: soluble fraction after stress (log2 fold change); higher = more stays soluble; pooled small domains, quantitative proteomics
Conditions: stress: 50 degC
Summary of the method: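 Pooled custom libraries of small protein domains were measured in a high-throughput format, with quantitative proteomics as the read-out. Each library was stressed at 50°C. Aggregation propensity is given as the base-two logarithm of the fold change in how much of each protein stays soluble after the stress. Higher values mean a larger share of the protein remains in solution.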

Row | Sequence | soluble fraction (log2)
1 | HMPESFSEMQKRTGVGEFSDDALSAKYVDSIDADVMSLDEYIMKVRGISLDDLEAERALRAR | 0.0325
2 | HMHSIFPVIRSTSFPTKSNDGELFITSDHTAETRIYYALDLGNTYRLIDQKVMNEINLTESLVKETARF | -1.9
3 | HMSMSTVGERIKKKRKNLNFTQQELAAKLNISAQAVSKWENGVALPDLGLMPKLAQVLESTVDGLLGYQGA | 0.0315
4 | HMGSPKLVIKNGQVDYQVLKKEKLDLLELTSLLRGQNTFSIREIEYAIIEPNGVITVIKKPEYQSVVKGDL | -0.239
5 | HMEDEAVMQLPLSELKGLSPELLAILNGAGYEKLKDVLDLEREDIERIPGMTPERNEQLVAFLAELTE | 0.0689
6 | HMYMWQVEDLLRANELDIENIKKTIIDHYQLDDAQKSELTRWYEDLINMMRLEGVTKEGHLQINK | -1.41
7 | HMFAQDKKFITYKVKEGETVQSISKALSITPYDLLKLNPDIKDNVSQDDLLIIPNKQYDPLGDI | 0.144
8 | HMDDTVILPIQINGKRRAEISVPKAMPASEVEKLALANEDVLRFLAGQPIKKLIVVPGRIINVV | 0.179
9 | HMIISPKKLEYRQRIINALGDRKMSLNELSKAMGYKGITTKLSFTVDDMIKSGVIEKVMVGAYAKLHIP | -1.65
10 | HMTTQTTKYVNTTAGLNVRTGPSTSYAKIVTLSYGQSVNVLSTSNGWSKINYNGSTGYVSSQYLQSTKPS | -0.619
11 | HMRDAKSQLQEALQKSGRLPEYELVSVEGPPHAPVFTYRVRIDGAVVGEGQGASKQAAQQAAAQSALKSG | 0.145
12 | HMKDIIVLGAIQAGIKKFDKIQKMTQIEPEELNSILEQLENRGFIQVAEKSGLLGKKIEILVTEKGSNEVD | 0.442
13 | HMQINLSEWVLAAREYAGPEMTQEKLAEHLGRTKANVSAMENGRSKPSFEQMMEIHRVTGYPLPYQ | -0.218
14 | HMDSTDSIIHYVRAHRSLEVKNLSFAEARFKKVVELEPNFARGWLGLGEVSILKNNFENASIYLDKALE | -0.463
15 | HMDDERDRLVQQAMEGLSPALREILLLAYFQRMPYNQIAESLRIPLGTVKSRLHAAVAAFAKRWQELNRS | -0.693
16 | HMGDAIPVPDVSGFSEDQAMNNLRKVGLRPKATYVADDNTAKGYVTGTSPAKNIEVAPDSEVIVYVSSGP | 0.238
17 | HMSGSKEQQIVILNNILERQLQAFGLQGNREFPMVTLKNIYNSLSKIIENAGLKNVENYFVNPEQGKQM | -0.256
18 | HMSKQEFVDRLRVSLSGKISPASVEDNARYYEDYINTHIRLGEPEEDVLEGLGDPRLIARSIVAAESV | 0.0896
19 | HMNDLIKMPYLVGQLYDDVASNQEYADFQFKITEGNDPDKQPGEIMKQDPAADIMVKKNAEVELLVNG | 0.247
20 | HMDYPFQYFNYSHLRILGVPAQLIKAVRKAPTLDAIEQLSGLSEKTKLWLLELATEPKLEDVLFDPGR | -1.44
21 | HMSKSIELMNEIKKYIEEYYLQYRQSPSTTKIAEAVGIARGTAYKYLVEMSERNMIEYDGQEISTEVTRKY | -0.0213
22 | HMIPENKRVLISLTYIYGIGKKISQDILEKANIDSSIKTSQLTDDDVARIRQLIENDYLVEGELRV | 0.0489
23 | HMIDQIAEQLQQRLAVDTAFATIQRDYPDVIANKDIELLTAIKVNQKIAEGASRASAMLESAKEVYETL | -0.0203
24 | HMSFDGFSDRLKSVLNSGKYTQKEAAEKINISEYSFTKYLNGRIPQTEILYKIARLYNKSMEWLLTGKDPI | -2.01
25 | HMNSFGWESFVGEKGVTDTDLRPSGWIVIKDKRLFALTEGTFIEKGVSVEILSVEGNRIVVREIS | -0.249

Row | Sequence | soluble fraction (log2)
26 | HMLQQKESAALGERLLNQALATLKVEPDAISWDRWEALAKEYGAKSQLDILADIGLGKRLSFVVAQALTKV | -0.535
27 | HMIEESTVPDLKGKSQEDAIKLLEDANLKYQIVEEESKKIEAGYVISQETDANKKVNAGDTVIIHVST | 0.295
28 | HMEVSVPDFTGMSKSDAQNAAKEAGLTVNFEEDYDNQVPAGQVIRSNPSAGEKVKKNSSVTVTLSKGSN | -0.0943
29 | HMQVSITGYLGGEKIGLFDDAKFKALAAKQGIAIDYRKAGSPAMMDADRKGMDYLFPSSRAAVEYGNAKGV | -0.009
30 | HMSSIRDVVPEGLLSDREKLVLVLAFDRDLDGPDMARTLGISANTVRVLKARALKKLRQAGIQP | -0.957
31 | HMPSLNDRPDDVLYLFSYFLQSFSHRQVSLPKILKKALIQHDWWGNIRELHSVALRYYIFGDTLNGAYDSL | -1.3
32 | HMGAKLTTAQGGTLKVLVKGKKTHTPTIELRDKDPDFPNAKVVQPDINKGNKQIAHGINGVL | 0.514
33 | HMRMSLDEAKAVVLPIGEYKGRNMGEVLAIKPELIDFYASQKFNSSKYPYLKEAAQVILENQ | -0.0538
34 | HMIQVNKTQALIIEEMRDNPNITLLELQKTLSLGRTAIQNNVSSLRKRQIIKRVGSNKNGYWEVTDK | -1.95
35 | HMGVPVTAPMPGKVLKVTVSVGAAVKNGDLVLVLEAMKMENEIFATANGVVKEIRSREGDTVNSGDVMMVI | -0.533
36 | HMSMRIDTNTLNYYVQNAQISLSVLRTKINNLDQFLSGEKQPTFNQLSEIAKKINVPTGLLLLNKS | -1.45
37 | HMWPDDAIALPTRDGQDVGGAQERTMLAFASGAAGIRTVEEINPDGSITRLRTRYGWPTFETEGARTAAAE | -0.109
38 | HMVFSNLGSRGEEVRQIQTKLKELGYLQGNVDGIYGNQTKQAVTAFQRDHGLSADGIAGEKTLAALGIG | 0.315
39 | HMKPSNLTSDERTQLLAQLKTAMGSDQYNQLRRQVGEEKLLEYVLDNVPGIQEEILGNRAVQENIDLH | 0.23
40 | HMGLLEMPSERERQVLVLIAEGLSNKEIAARLYLTEGTVKNHAHSLYAKLNVTTRTLAIARARQLGI | -1.54
41 | HMQVTDTGTIEGEIDKVLAANPDRVTEYHDGKEKILGWFVGQVMQTTKGKANPQMVNQLFLEKLK | 0.142
42 | HMRRVEDVRTALEHFAAARNTTPMAMTLDQRREAMRELAASGLLNLRRALSEVAQTLGVARSTVYTYLP | -0.84
43 | HMAESNQIQLSDVREALNMIGPASWLDLVHYLDTGKGRGGQRLRRMLKSLSRSGEIELVARGTYQITDN | -0.422
44 | HMADYYSILGLTKNATDIEIKSAFRKLAKIYHPDKNPDPNARVLFEHILKAYDTLINPHSRRRYDSL | -0.349
45 | HMGVSDDMARGVVRARQFLSDFAAVPLDRMTPAEAVARARQLKSELETDAKHSPWLLDVLSNA | -0.0848
46 | HMKYEGEDEYYASLVTEKIAAIGTVTEESEDAIKEARAAYDALTSAQKKLVTNYDVLDEAEK | 0.371
47 | HMDRVSEITLTRLRDYAADGQVRTATLTHRTNVVTGTLRDGRRFSAGVPPMYGDELTTFLLDNGVRVDSDN | -0.167
48 | HMNELTDKQILLFSNKLAHNIPFSSKYSKPGESYEEFAERLANELIDPQKVKLYKPYLEEVGFK | 0.302
49 | HMWGQDVLFTIDKKEFKGKLLEQSDKHTTFLPDGQKTPQKIPNRLIKEIHLGSNKIIDFGNDFLI | -0.179
50 | HMPMPQDEVSYALGLSIGQNFKASGIKAITSEDFIAGLQDALAEREPQMTTERAREVINQLFMRLQQEESE | 0.145

Row | Sequence | soluble fraction (log2)
51 | HMATPSTGQVSVVRLNLRVSPSISSPVVTRLTQGDTVKILAASDDGRWYKVATADGRTGWLYTIYITAE | -0.37
52 | HMTYTGTVTGVDEGGLRVRSSTSTENTSNVITKVYTGDTFDVLDTVYNGSAKWYKIGFTYNGTYTYGYVSA | -1.17
53 | HMTNKKIILEIFQNSDKPLIVEEISKKMFEKTGKKMILSTIYRNLKNMEDVGILKKIYNEDGSYMYIF | -0.953
54 | HMSSIDLTARSGRAALKHRLSLLGYEFSKIELETLYVRFIELADEKKLLHDEDLIELVKEKN | -1.37
55 | HMLPKILVMDGKVNKNALTTLGKDEEWVKKVLRNHNIHSIKDVLLALYDTKGKFQYQLYDDYEK | -0.0783
56 | HMVNEALDEFFVGLKNLYESATGKPAIAGAHFDGEPKTDFEKLMYLGYQIIRPAQAYPSALKAYERAIARS | -0.173
57 | HMTAMQYVTIKDIADALGISKSSVSRALAGDVHNVSAQTIERVRAKALEMGYLRNNAAVNLR | -0.0718
58 | HMHEHWDGSGFPKHLRGANIPLGARVIAVADTYDSITSSRAYRAGSTHEAAEREMRRVSGTQLDPE | 0.137
59 | HMQQEAVSGKLLQLDLAKKEGRLSTDLGREVLFHIPKPELFVHLSVGQRIIIKLDAGQEAVGV | -0.0409
60 | HMNPNSIDEKLKLLSNREKEVAILVLKKLSYFEISEQLNITIRTVKAHTKNIYEKFNVSNRLAFLLLFN | -0.225
61 | HMGLNNVSDILRLDFNSFKKKFDKLPSGYKNSVVEQAALMIKSGELDSIKIKDYIEKSMGIELDI | -0.27
62 | HMEPDEYTVRQAFMKFDVGGEGRVPRDKLKALLETLGLELSAQQVRESEEQLDPEGTGFTSYGDFLMWWN | -1.12
63 | HMGTESFGARIRKIREARDWTPAALAEATGQTPEFVARVERDEVAPPVAFLLRLAAALGVDPSTF | -0.123
64 | HMRLSDSEFESIENAIKEKLENSALTADVLVKELSFDEDKIWKVIRWLEDAEKISEDEAGTLLWKPR | -0.22
65 | HMNFTEAEQRFHFLEDQRQRGVLSLEQYRAELAQLRVTDAWGRLWMLQEQTGQWFVFHEGQWRPSQ | -0.124
66 | HMNEIDDYDIQLLEYLSKGVSQEAMESVFKQAGITPNSKSTIEKRISKLKIYFKALNTTHLVSITKDLGL | -0.642
67 | HMASPEIAFLNKFYQLSNTVNEISVMKIVKNYQEKYQQRISIEQMAKTLKTMGYAVRNNIISNIEEAPV | -1.3
68 | HMKRLLLPGDLAGVRRHLLDRENSFHILRVLRLARGSTIEAMDDAGNRFSATLAGVKAGRALFDLAAKI | -1.54
69 | HMESRDRVRQASAAGYRFMSTMAGHEPGFEEASRALFAGDQTAFEARITAWPVDVQTHLKKILAEAFTT | -0.734
70 | HMQLDLTSTLDHMYKQMRNDHPRALLMAVEKEMVLRALKETDGNQLRASDILGISRSTLRKRIEEFDINS | -1.09
71 | HMSDKNVYGKYKNVFLSDEEFSELKQFYPNDWSDRIETLSEGIELKGYKYKNYLLAIKKWAEYEGQKAD | -0.0354
72 | HMSDIPEGYMSRVQLGDEWGIHLATFDKAVIAVKEKLGTVVFIDKSNNTTAGYSPEQQTIIYDWLAEN | -1.82
73 | HMGSGQVTLPDLEGKSMKEVARILSQLGLHLSPDGHGLAFKQSPAAGTRVPVGSTIKVSFQPL | 0.0366
74 | HMNHAPSLMRKIRRGLKEGRNPDDLLVNAKSISDYYYRSLSFYLLAPHFSSKSKQYKQVISLANS | 0.036
75 | HMNGEDVTDAIRLPQISQYASVVSAYPGVRAFLLEMQRDFARKGSVIMDGRDIGTVVLPEAEVKIFLT | -0.025
